Test results published in the DeepSol protein solubility set.

Assay: soluble on expression in E. coli; label from the status in PepcDB or PDB records

Sequence | soluble on expression in E. coli
MGSDKIHHHHHHMQTIKLYIKDWLAIHPYIQQQATDRYFVDLANRLYSTCTIREIPESIKKKLCLYTAAYFEDVISGLGLWQAFIKKHLELYDTSLPFYTIRPDYIKDEINEEDIRFIIWNTLEKAPYKHPYINPMDRNIEETSHSFFRILDEEYETAPANDTLQDFFMDFKGKENANHKLRWLFGHTYLTEPSVQEYIAQVTETDKFIIPCGPLALFLHEWIDLLTNGETECWEEIEGLYPAIPEISDEMKERNHHTYQLFTQGTNGARIVYLEGYKELHRFLTQVLQWPDDSNHTLPQMKEHKDFIMMVNSEKGILLAKDICKYISDPLNPMYDAATAAQEAFSLLTIPTKCPPDLMEYVINNHYIPDAQFPEFGERELVQKNADFIARNSLLYYYRGD | not soluble
TVEFRDLQGQRMIAVAENVASTPVVRDQLSDRSVERVLAPEVDRAVNLSGATLAEIVAPNGAVTVSSDPTRLGVPAELGASDVMTGRAWSGDVDVDGRRAIVGHVPILSATGDVLAVVTVSDDYPSVWDLLSSAG | not soluble
MSLNARTNIALLANSSSPLHPLQELLAVAGYQCNVFHAGRDLIQGLGHDTYEMLLIDRELADISAIDVIRTVRAVRNRDVPIVIFASENNDDDLVEALDAGADDYVLRPLAARVLLARIAALRRRMSGTRLRGAMPLRAGPYELSNPGRYATLNGGRIPMTPKEFDLAMLMFANAGRILASRRIEHTIWGHDLPPYSRALAGLVSRMRRTLNLCAENGVTVSVVYAQGYRLDILDEGHHHHHH | not soluble
MEKISDLIECIAYEKNLPKEMISKVIQGCLLKMAQNELDPLARYLVVEENKQLQLIQLVEVLEDGDERLVNDPSKYISLSKAKEMDPSVKIKDELSYSLSLESMKQGAINRLFKDLQYQLEKALEDSHFEAFQKRLNSVLMGQVILVDHNQNTFIEIEQQFQGVLSMRHRIKGESFKVGDSIKAVLTQVKRTKKGLLLELSRTTPKMLEALLELEVPEIKDKEIEIIHCARIPGNRAKVSFFSHNARIDPIGAAVGVKGVRINAISNELNKENIDCIEYSNVPEIYITLALAPAKILSVEIKKIPIEELNAEEKESIQERFIVNNHLQKAKVRLLDIEKSKAIGKGGVNVCLASMLTGYHIEFETIPSVKENAENESEKETPKVGVEALESLFKN | not soluble
MFYITSKKVPFVTYSKNVFIPVTNICRNQCGYCGFRREPGQPGARLMKPEEVISVLENGVRAGCTEALFTFGERAEEVPGYGEMLEEIGYSSTLEYLVFLCETAIDIGILPHTNAGIMTRSELEALKPLNASMGLMLESTAVLAAHKDCPGKIPERRLETIREAGKLKIPYTTGLLIGIGESRDDRIESLEAIAALHREYGHIQEVIIQNFAPKPGTEMENFPEPAVEEMMDSVELAARILPGDVAVQVAPNLIDPKSLIAKGVTDLGGISPLTIDWINPEAEWPDVKNLQKKLGDIPLKERLPVYPPYVKKGWYSERIGSLIKRLSDNSGYLEHHHHHH | not soluble
MKRYRTLLFDVDDTILDFQAAEALALRLLFEDQNIPLTNDMKAQYKTINQGLWRAFEEGKMTRDEVVNTRFSALLKEYGYEADGALLEQKYRRFLEEGHQLIDGAFDLISNLQQQFDLYIVTNGVSHTQYKRLRDSGLFPFFKDIFVSEDTGFQKPMKEYFNYVFERIPQFSAEHTLIIGDSLTADIKGGQLAGLDTCWMNPDMKPNVPEIIPTYEIRKLEELYHILN | not soluble
MKKCNIMIVGVGGQGTLLASRIIGNVALKQNYDVKVSEVHGMSQRGGSVVTYVKIGDKVYSPIIEKGEADIIMAFEMLEALRWAEYLKEDGKLLVNEQKINPMPVIIGKEKYPENIMQMLKENYKNVISLDALKIARECKNIKAVNTVLIGLLAKVLEIDKEVWIESIKEVVPSKAVDVNLKAFEEGYSRG | soluble
MSLDKWEMERTDITMKHKLGGGQFGEVYEGVWKKYSLTVAVKTLKEDTMEVEEFLKEAAVMKEIKHPNLVQLLGVCTREPPFYIITEFMTYGNLLDYLRECNRQEVSAVVLLYMATQISSAMEYLEKKNFIHRDLAARNCLVGENHLVKVADFGLSRLMTGDTYTAHAGAKFPIKWTAPESLAYNKFSIKSDVWAFGVLLWEIATYGMSPYPGIDPSQVYELLEKDYRMERPEGCPEKVYELMRACWQWNPSDRPSFAEIHQAFETMFQESSISDEVEKELGKRGEGHHHHHH | soluble
SGSRDHLFKVLVVGDAAVGKTSLVQRYSQDSFSKHYKSTVGVDFALKVLQWSDYEIVRLQLWDIAGQERFTSMTRLYYRDASACVIMFDVTNATTFSNSQRWKQDLDSKLTLPNGEPVPCLLLANKCDLSPWAVSRDQIDRFSKENGFTGWTETSVKENKNINEAMRVLIEKMMRNSTEDIMSLSTQGDYINLQTKSSSWSCC | soluble
